# In patent publication US20220288202A1, “Use of Calcineurin Inhibitor Free CTLA4-IG + Anti-IL6/IL6R For Long Term Immunosuppression in Solid Organ Transplant Recipients” (Cedars-Sinai Medical Center, priority 2019, published 2022):
# “And” between values parts separate entries of the source, which are not always exact repeats. Identical values can stand only once. “Also recorded” adds a separate entry of the source.
# B1: clazakizumab (antibody, chains of the INN, looked up, V domains shown)
# VH: EVQLVESGGGLVQPGGSLRLSCAASGFSLSNYYVTWVRQAPGKGLEWVGIIYGSDETAYATSAIGRFTISRDNSKNTLYLQMNSLRAEDTAVYYCARDDSSDWDAKFNLWGQGTLVTVSS
# VL: AIQMTQSPSSLSASVGDRVTITCQASQSINNELSWYQQKPGKAPKLLIYRASTLASGVPSRFSGSGSGTDFTLTISSLQPDDFATYYCQQGYSLRNIDNAFGGGTKVEIK
# notes: Genetically engineered humanized anti-IL-6 mAb
# What was measured:
# [1] = system: highly HLA sensitized kidney transplant recipients; test: Experience with anti-IL-6/IL-6R+CTLA4-Ig, CNI-free and MMF-free, in human kidney transplant recipients (case courses); format: in vivo
# Description: Four patients were maintained on CNI-free and MMF-free immunosuppression on anti-IL-6R or anti-IL-6+CTLA4-Ig for a prolonged time period (years) after transplant. These patients received two infusions per month as their standard immunosuppression.
# [2] = system: highly HLA sensitized patients (HLAi kidney transplant); test: clazakizumab desensitization trial: transplantation, rejection episodes and graft loss; format: in vivo, human; conditions: for highly sensitized patients able to receive transplants: after clazakizumab desensitization
# Protocol: (§1) Patients entered into the afore-described clazakizumab desensitization trial (NCT03380962) where 75% were in the 99-100% Panel Reactive Antibody (PRA) range received clazakizumab 25 mg subcutaneously monthly for up to 6 months. If transplanted, they received continued clazakizumab for up to 6 M post-transplant. This group of patients are exceedingly difficult to transplant due to high likelihood of severe antibody mediated rejection and graft loss post-transplant. Antibody levels, pre-post-transplant and Treg cells were monitored at concomitant time points.
# (§2) As part of a phase I/II trial of clazakizumab for desensitization, HLA sensitized patients received anti-IL-6, 25 mg SC monthly×6 doses with monitoring of HLA antibody levels and Tregs. Patients were treated pre- and post-transplant with clazakizumab. Transplanted patients received monthly clazakizumab 25 mg subcutaneously starting 5-7 days post-transplant for 12 months. Tregs were determined by flow cytometry as CD4^+, CD25^+, CD127^dim, FoxP3^+ cell populations in CD4^+ cells. Determinations were made at baseline, at transplantation and day 180 post-transplant.
# [3] = system: patients/subjects taking clazakizumab; conditions: human, in vivo, cited from earlier work
# [4] = system: HLA antibodies (class I and class II); test: clazakizumab desensitization trial (NCT03380962): HLA antibody levels pre- and post-clazakizumab; format: in vivo, human
# Protocol: as §1, §2
# monkeys = conditions: monkey, in vivo; cited from earlier work
# [5] = in vivo; cited from earlier work
# [6] = system: donor specific antibodies; test: clazakizumab desensitization trial: donor specific antibodies pre- and post-transplant; format: in vivo, human
# Protocol: as §1
# Transplant patients who were treated as described in the previous example were also monitored to assess the effect of clazakizumab on donor specific antibodies. Particularly, levels of donor specific antibodies were monitored in transplant patient samples pre- and post-transplant.
# [7] = system: Treg cells (CD4+, CD25+, CD127dim, FoxP3+); test: Tregs by flow cytometry in clazakizumab-treated HLA sensitized patients; format: in vivo, human; conditions: for Mean Treg value: baseline 3.2+1.09%, in CD4+ cells
# Protocol: as §2
# [8] = post-transplant on clazakizumab
molecule,measurement,setting,value
C=CC[C@@H]1/C=C(\C)C[C@H](C)C[C@H](OC)[C@H]2O[C@@](O)(C(=O)C(=O)N3CCCC[C@H]3C(=O)O[C@H](/C(C)=C/[C@@H]3CC[C@@H](O)[C@H](OC)C3)[C@H](C)[C@@H](O)CC1=O)[C@H](C)C[C@@H]2OC [tacrolimus],biopsy toxicity finding,"[1]; patient, three years after anti-IL-6R start, tapered off",toxicity seen on a biopsy
tocilizumab,duration of stable course with declining SCr,[1]; person on CTLA4-Ig + tocilizumab monthly,over 1.5 years
same,SCr course,"[1]; person, chronic ABMR, on CTLA4-Ig, converted from CELLCEPT to tocilizumab monthly",stable with declining SCr
B1,highly sensitized patients able to receive transplants,[2],all of these patients and 9/10
same,highly sensitized patients able to receive transplants,[2]; listed as claza,10 patients
same,grafts lost due to rejection,[2]; [8],no grafts were lost; also recorded: no graft loss
same,transplant patients with rejection episodes,[2]; [8],Two of the ten and 2 of 10
same,infusion reactions,[3]; iv,no infusion reactions
same,severity of injection site reactions,[3]; sc,mild or moderate
same,demyelinating disorder events,[3],rarely reported
same,malignancies,[3],no imbalance of malignancies
same,outcome of pregnancies in subjects taking clazakizumab,[3],one spontaneous abortion
same,reactivation of viral and other serious infections (e.g. EBV or TB),[3],rarely reported
same,Mean MFI for HLA cl,"[4]; post claza, pre-desensitization 13062±3123, p=0.05, nine transplanted patients",8585±4597 MFI
same,Mean MFI for HLA cll,"[4]; post claza, pre-desensitization 13519±2966, p=0.03, nine transplanted patients",8344±4836 MFI
same,impact on HLA antibodies (class I and class II),[4]; pre- vs post-clazakizumab 25 mg SC monthly,significant reductions; also recorded: reduced
same,monkeys with retained placentas in which excessive uterine hemorrhage led to moribund status,monkeys,3 of the 5
same,elimination half-life (t1/2),[5],about 30 days
same,donor-specific antibodies present prior to transplant,[6]; at transplant,significantly reduced
same,DSA status of DSA+ patients,[6]; by day 180 post-transplant,negative
same,donor-specific antibodies present prior to transplant,[6]; post-transplant,disappeared
same,pathogenic antibodies,[6]; up to 3 months post-transplant,significant reduction
same,Mean Treg value,"[7]; at transplant, p=NS",3.5+1.75%
same,change in Treg cells,"[7]; day 180 post-transplant, still on anti-IL-6 therapy",significant increase; also recorded: dramatic increase
same,Mean Treg value,"[7]; day 180 post-transplant, p=0.008",12.6+9.3%
